The target of this experiment is T1, PD-1 (UniProt Q15116 25-288, limits assumed).
T1 construct: whole, on cells; also called Jurkat/PD-1细胞表面的PD-1
Description: Jurkat/PD-1 + CHO/PD-L1 NFAT-luciferase reporter blocking assay.

T1 sequence (Q15116 25-288 limits assumed): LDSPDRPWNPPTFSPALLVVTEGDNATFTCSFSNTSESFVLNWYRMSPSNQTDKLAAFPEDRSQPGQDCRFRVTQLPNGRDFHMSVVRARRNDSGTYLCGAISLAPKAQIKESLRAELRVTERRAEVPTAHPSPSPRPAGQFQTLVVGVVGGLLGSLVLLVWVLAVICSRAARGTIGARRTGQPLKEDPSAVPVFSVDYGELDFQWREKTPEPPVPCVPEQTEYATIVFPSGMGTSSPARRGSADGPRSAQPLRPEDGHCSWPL

B1: G-Ab1 (antibody, human IgG4 S228P, kappa, V domains shown)
VH: QIQLVQSGSELKKPGASVKVSCKASGYTFTNFGMNWVRQAPGQGLKWMGWISGYTREPTYAADFKGRFVISLDTSVSTAYLQISSLKAEDTAVYYCARDVFDYWGQGTLVTVSS
VL: DIVLTQSPASLAVSPGQRATITCRASESVDNYGYSFMNWFQQKPGQPPKLLIYRASNLESGVPARFSGSGSRTDFTLTINPVEADDTANYYCQQSNADPTFGQGTKLEIKR
notes: An IgG4 isotype control was used alongside it; also called 抗PD-1抗体; G-Ab1抗体
B1: the binding result was “binds”.

Source of the values: patent publication CN115607664A (GENOR BIOPHARMA CO LTD, dated 2023).
